Experimental data from publication PMC3873232.

What was measured:
[1] = biological target: unmodified Spt5 CTD peptide (S. pombe); test: pull-down; biotinylated peptides (50 µg) on streptavidin Dynabeads incubated with 50-200 ng TAP-purified factor in 200 µl (20 mM Hepes pH 7.6, 37.5 mM KOAc, 2.5 mM MgOAc, 5% glycerol, 0.075% Triton X-100), 4°C, 1 h; washes with 250 mM KOAc; immunoblot with a TAP antibody; percent bound by ImageJ
[2] = biological target: Thr1-P form of the Spt5 CTD peptide (S. pombe); test: as above

| Substance | percent bound [1] | percent bound [2] |
| --- | --- | --- |
| PAF complex purified from the tpr1-TAP strain (from UniProt O42668 1-1039; Q9UUE7 1-371) | 5% |  |
| Prf1-CBP (TAP-purified, native Prf1) (natural protein) | 10% | 35% |
